Tests used:
[1] = substrate: O=[N+]([O-])c1ccc(O)cc1; test: Kinetic analysis, p-nitrophenol hydroxylase activity in Hepc/2E1.3-8; format: cell-based, human; conditions: other: Hepc/2E1.3-8, Lineweaver-Burk plot, 37.0 °C
From the text: 4-Nitrocatechol purchased from Wako Junyaku K. K. was used as the standard substance.

[2] = substrate: CC(=O)O[C@H]1C(=O)[C@@]2(C)[C@H]([C@H](OC(=O)c3ccccc3)[C@]3(O)C[C@H](OC(=O)[C@H](O)[C@@H](NC(=O)c4ccccc4)c4ccccc4)C(C)=C1C3(C)C)[C@]1(OC(C)=O)CO[C@@H]1C[C@@H]2O
[3] = substrate: CCOc1ccc2nc3ccc(=O)cc-3oc2c1; test: Kinetic analysis, 7-ethoxyresorufin O-deethylase activity in Hepc/1A1.4; format: cell-based, human; conditions: other: Hepc/1A1.4, Lineweaver-Burk plot, 37.0 °C
Protocol: (§1) After 1800 μl of methanol (Wako Junyaku K. K) was added to 300 μl of the reaction solution and insoluble material was removed by centrifugation, fluorescent intensity was measured at an excited wavelength of 550 nm and a fluorescence wavelength of 586 nm using a spectrofluorometer to quantify the resorufin formed. The product purchased from Molecular Probes was used as the standard substance for resorufin (Molecular Probes).

[4] = substrate: CCOc1ccc2nc3ccc(=O)cc-3oc2c1; test: Kinetic analysis, 7-ethoxyresorufin O-deethylase activity in Hepc/1A2.9; format: cell-based, human; conditions: other: Hepc/1A2.9, Lineweaver-Burk plot, 37.0 °C
Protocol: as §1

B1: CYP2E1 (Homo sapiens) (protein)
chain: MSALGVTVALLVWAAFLLLVSMWRQVHSSWNLPPGPFPLPIIGNLFQLELKNIPKSFTRLAQRFGPVFTLYVGSQRMVVMHGYKAVKEALLDYKDEFSGRGDLPAFHAHRDRGIIFNNGPTWKDIRRFSLTTLRNYGMGKQGNESRIQREAHFLLEALRKTQGQPFDPTFLIGCAPCNVIADILFRKHFDYNDEKFLRLMYLFNENFHLLSTPWLQLYNNFPSFLHYLPGSHRKVIKNVAEVKEYVSERVKEHHQSLDPNCPRDLTDCLLVEMEKEKHSAERLYTMDGITVTVADLFFAGTETTSTTLRYGLLILMKYPEIEEKLHEEIDRVIGPSRIPAIKDRQEMPYMDAVVHEIQRFITLVPSNLPHEATRDTIFRGYLIPKGTVVVPTLDSVLYDNQEFPDPEKFKPEHFLNENGKFKYSDYFKPFSTGKRVCAGEGLARMELFLLLCAILQHFNLKPLVDPKDIDLSPIHIGFGCIPPRYKLCVIPRS
notes: expressed in transfected cells
Km [1]: 88 µM | Vmax [1]: 0.00012 µmol/min/mg

B2: CYP2C8 (Homo sapiens) (protein)
chain: MEPFVVLVLCLSFMLLFSLWRQSCRRRKLPPGPTPLPIIGNMLQIDVKDICKSFTNFSKVYGPVFTVYFGMNPIVVFHGYEAVKEALIDNGEEFSGRGNSPISQRITKGLGIISSNGKRWKEIRRFSLTTLRNFGMGKRSIEDRVQEEAHCLVEELRKTKASPCDPTFILGCAPCNVICSVVFQKRFDYKDQNFLTLMKRFNENFRILNSPWIQVCNNFPLLIDCFPGTHNKVLKNVALTRSYIREKVKEHQASLDVNNPRDFIDCFLIKMEQEKDNQKSEFNIENLVGTVADLFVAGTETTSTTLRYGLLLLLKHPEVTAKVQEEIDHVIGRHRSPCMQDRSHMPYTDAVVHEIQRYSDLVPTGVPHAVTTDTKFRNYLIPKGTTIMALLTSVLHDDKEFPNPNIFDPGHFLDKNGNFKKSDYFMPFSAGKRICAGEGLARMELFLFLTTILQNFNLKSVDDLKNLNTTAVTKGIVSLPPSYQICFIPV
Km [2]: 7.4 µM | Vmax [2]: 9e-09 µmol/min/mg

B3: CYP1A1 (Homo sapiens) (protein)
chain: MLFPISMSATEFLLASVIFCLVFWVIRASRPQVPKGLKNPPGPWGWPLIGHMLTLGKNPHLALSRMSQQYGDVLQIRIGSTPVVVLSGLDTIRQALVRQGDDFKGRPDLYTFTLISNGQSMSFSPDSGPVWAARRRLAQNGLKSFSIASDPASSTSCYLEEHVSKEAEVLISTLQELMAGPGHFNPYRYVVVSVTNVICAICFGRRYDHNHQELLSLVNLNNNFGEVVGSGNPADFIPILRYLPNPSLNAFKDLNEKFYSFMQKMVKEHYKTFEKGHIRDITDSLIEHCQEKQLDENANVQLSDEKIINIVLDLFGAGFDTVTTAISWSLMYLVMNPRVQRKIQEELDTVIGRSRRPRLSDRSHLPYMEAFILETFRHSSFVPFTIPHSTTRDTSLKGFYIPKGRCVFVNQWQINHDQKLWVNPSEFLPERFLTPDGAIDKVLSEKVIIFGMGKRKCIGETIARWEVFLFLAILLQRVEFSVPLGVKVDMTPIYGLTMKHACCEHFQMQLRS
notes: as for B1
Km [3]: 0.25 µM | Vmax [3]: 5.6e-05 µmol/min/mg

B4: CYP1A2 (Homo sapiens) (protein)
chain: MALSQSVPFSATELLLASAIFCLVFWVLKGLRPRVPKGLKSPPEPWGWPLLGHVLTLGKNPHLALSRMSQRYGDVLQIRIGSTPVLVLSRLDTIRQALVRQGDDFKGRPDLYTSTLITDGQSLTFSTDSGPVWAARRRLAQNALNTFSIASDPASSSSCYLEEHVSKEAKALISRLQELMAGPGHFDPYNQVVVSVANVIGAMCFGQHFPESSDEMLSLVKNTHEFVETASSGNPLDFFPILRYLPNPALQRFKAFNQRFLWFLQKTVQEHYQDFDKNSVRDITGALFKHSKKGPRASGNLIPQEKIVNLVNDIFGAGFDTVTTAISWSLMYLVTKPEIQRKIQKELDTVIGRERRPRLSDRPQLPYLEAFILETFRHSSFLPFTIPHSTTRDTTLNGFYIPKKCCVFVNQWQVNHDPELWEDPSEFRPERFLTADGTAINKPLSEKMMLFGMGKRRCIGEVLAKWEIFLFLAILLQQLEFSVPPGVKVDLTPIYGLTMKHARCEHVQARLRFSIN
notes: as for B1
Km [4]: 0.72 µM | Vmax [4]: 1.6e-06 µmol/min/mg
